In paper PMC3124622:

Substrate: Nc1nc2nc[nH]c2c(=O)[nH]1
Test: purified protein, by the assay type
Format: biochemical, E. coli
Settings: other: wild-type, guanine as substrate, 20 μM tRNA, 37 °C, pH 7.3

B1: E. coli TGT Wild-Type (Escherichia coli K-12) (protein)
chain: MKFELDTTDGRARRGRLVFDRGVVETPCFMPVGTYGTVKGMTPEEVEATGAQIILGNTFHLWLRPGQEIMKLHGDLHDFMQWKGPILTDSGGFQVFSLGDIRKITEQGVHFRNPINGDPIFLDPEKSMEIQYDLGSDIVMIFDECTPYPADWDYAKRSMEMSLRWAKRSRERFDSLGNKNALFGIIQGSVYEDLRDISVKGLVDIGFDGYAVGGLAVGEPKADMHRILEHVCPQIPADKPRYLMGVGKPEDLVEGVRRGIDMFDCVMPTRNARNGHLFVTDGVVKIRNAKYKSDTGPLDPECDCYTCRNYSRAYLHHLDRCNEILGARLNTIHNLRYYQRLMAGLRKAIEEGKLESFVTDFYQRQGREVPPLNVD
Km: 0.35 (0.03) μM
kcat: 0.00629 s⁻¹
